# Measurements from patent JPH10324699A (dated 1998).
# Where a chain is given by its changes, count along the chain named.
# T1: ヒトFas抗原 (ヒトリンパ球細胞株HPB−ALL細胞上) (human, UniProt P25445 26-335)
# T1 sequence (looked up): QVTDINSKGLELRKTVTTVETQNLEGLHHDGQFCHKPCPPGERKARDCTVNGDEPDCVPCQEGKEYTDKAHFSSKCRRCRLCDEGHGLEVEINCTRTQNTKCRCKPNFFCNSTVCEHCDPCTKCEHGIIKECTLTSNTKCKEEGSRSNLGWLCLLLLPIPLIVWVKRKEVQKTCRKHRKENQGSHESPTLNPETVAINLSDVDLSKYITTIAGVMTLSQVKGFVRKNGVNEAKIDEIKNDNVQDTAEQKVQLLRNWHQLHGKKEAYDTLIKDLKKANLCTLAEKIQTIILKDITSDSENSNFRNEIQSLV
# B1: 抗ヒトFasヒト化抗体 [B] (pHμM1-1 及び pHκKY2-58 でコ・トランスフェクションしたCOS-7細胞の発現産物; HμM鎖 + VL-KY鎖) (antibody)
# heavy: EVQLVQSGAEVKKPGASVKVSCKASGYTFTDYNMHWVKQAHGKSLEWMGYIYPYNGGTGYNQKFKSKATLTVDNSASTAYMELSSLRSEDTAVYYCARSYYAMDYWGQGTLVTVSSGSASAPTLFPLVSCENSPSDTSSVAVGCLAQDFLPDSITFSWKYKNNSDISSTRGFPSVLRGGKYAATSQVLLPSKDVMQGTDEHVVCKVQHPNGNKEKNVPLPVIAELPPKVSVFVPPRDGFFGNPRKSKLICQATGFSPRQIQVSWLREGKQVGSGVTTDQVQAEAKESGPTTYKVTSTLTIKESDWLSQSMFTCRVDHRGLTFQQNASSMCVPDQDTAIRVFAIPPSFASIFLTKSTKLTCLVTDLTTYDSVTISWTRQNGEAVKTHTNISESHPNATFSAVGEASICEDDWNSGERFTCTVTHTDLPSPLKQTISRPKGVALHRPDVYLLPPAREQLNLRESATITCLVTGFSPADVFVQWMQRGQPLSPEKYVTSAPMPEPQAPGRYFAHSILTVSEEEWNTGETYICVVAHEALPNRVTERTVDKSTGKPTLYNVSLVMSDTAGTCY
# light: DVVMTQSPLSLPVTLGQPASISCRSSKSLVHSNGNTYLHWYLQKPGQSPKLLIYKVSNRFSGVPDRFSGSGSGTDFTLKISRVEAEDVGVYYCSQSTHVPPAFGQGTKVEIKRTVAAPSVFIFPPSDEQLKSGTASVVCLLNNFYPREAKVQWKVDNALQSGNSQESVTEQDSKDSTYSLSSTLTLSKADYEKHKVYACEVTHQGLSSPVTKSFNRGEC
# B2: 抗ヒトFasヒト化抗体 [C] (pHμM1-1 及び pHκKF2-19; HμM鎖 + VL-KF鎖) (antibody, human IgM)
# heavy: B1 heavy
# light: B1 light with Y92F
# B3: 抗ヒトFasヒト化抗体 [D] (pHμM1-1 及び pHκRY2-10; HμM鎖 + VL-RY鎖) (antibody, human IgM)
# heavy: B1 heavy
# light: B1 light with K50R
# B4: 抗ヒトFasヒト化抗体 [E] (pHμM1-1 及び pHκRF2-52; HμM鎖 + VL-RF鎖) (antibody, human IgM)
# heavy: B1 heavy
# light: B1 light with K50R, Y92F
# B5: 抗ヒトFasヒト化抗体 [G] (pHμH5-1 及び pHκKF2-19; HμH鎖 + VL-KF鎖) (antibody, human IgM)
# heavy: B1 heavy with K38R, H41P, K43Q, S44G
# light: B1 light with Y92F
# B6: 抗ヒトFasヒト化抗体 [I] (pHμH5-1 及び pHκRF2-52; HμH鎖 + VL-RF鎖) (antibody, human IgM)
# heavy: B1 heavy with K38R, H41P, K43Q, S44G
# light: B1 light with K50R, Y92F
# B7: マウス抗ヒトFas抗体CH11(MBL社) (antibody, mouse IgM)
# heavy: EVQLQQSGPELVKPGASVKISCKASGYTFTDYNMHWVKQSHGKSLEWIGYIYPYNGGTGYNQKFKSKATLTVDNSSSTAYMELRSLTSEDSAVYYCARSYYAMDYWGQGTSVTVSSESQSFPNVFPLVSCESPLSDKNLVAMGCLARDFLPSTISFTWNYQNNTEVIQGIRTFPTLRTGGKYLATSQVLLSPKSILEGSDEYLVCKIHYGGKNRDLHVPIPAVAEMNPNVNVFVPPRDGFSGPAPRKSKLICEATNFTPKPITVSWLKDGKLVESGFTTDPVTIENKGSTPQTYKVISTLTISEIDWLNLNVYTCRVDHRGLTFLKNVSSTCAASPSTDILTFTIPPSFADIFLSKSANLTCLVSNLATYETLNISWASQSGEPLETKIKIMESHPNGTFSAKGVASVCVEDWNNRKEFVCTVTHRDLPSPQKKFISKPNEVHKHPPAVYLLPPAREQLNLRESATVTCLVKGFSPADISVQWLQRGQLLPQEKYVTSAPMPEPGAPGFYFTHSILTVTEEEWNSGETYTCVVGHEALPHLVTERTVDKSTGKPTLYNVSLIMSDTGGTCY
# light: DVVMTQSPLSLPVSLGDQASISCRSSKSLVHSNGNTYLHWYLQKPGQSPKLLIYKVSNRFSGVPDRFSGSGSGTDFTLKISRVEAEDLGVYFCSQSTHVPPAFGGGTKLEIKRADAAPTVSIFPPSSEQLTSGGASVVCFLNNFYPKDINVKWKIDGSERQNGVLNSWTDQDSKDSTYSMSSTLTLTKDEYERHNSYTCEATHKTSTSPIVKSFNRNEC
# chain: DDEATILADNKCMCTRVTSRIIPSTEDPNEDIVERNIRIVVPLNNRENISDPTSPLRRNFVYHLSDVCKKCDPVEVELEDQVVTATQSNICNEDDGVPETCYMYDRNKCYTTMVPLRYHGETKMVQAALTPDSCYPD
# Biological target: T1, ヒトFas抗原 (ヒトリンパ球細胞株HPB−ALL細胞上)
# Assay: cell-based or functional assay
row,Binder,"ED 50 (細胞生存率が50%になるIgMの濃度; HPB-ALL 細胞, WST-1)"
1,B1,1.1 ng/mL
2,B2,1 ng/mL
3,B3,1.7 ng/mL
4,B4,1.5 ng/mL
5,B5,2.4 ng/mL
6,B6,3.4 ng/mL
7,B7,10.7 ng/mL
